Source: PMC7835349 (Communications Biology, 2021)
Several values for one entry are separate records, joined by “and”; a condition that tells them apart may be missing. Equal values may be shown once. Entries after “also recorded” stand apart in the source; their conditions may differ.

Tests used:
telemetered rats = assay: Conscious rat telemetry (QRS amplitude, blood pressure, tolerability); conditions: telemetered rat; AZD4320 10 mg/kg, conjugates 30 mg/kg IV;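 also: male Han Wistar rats carrying implanted telemetry transmitters, with ECG and arterial pressure recorded continuously while unrestrained in their home cage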
Excerpt: Male Han Wistar rats were implanted with HD‐S11 transmitters (Data Sciences International, St. Paul, MN USA) under isoflurane anaesthesia, the telemetry transmitter was placed in the peritoneal cavity, the arterial blood pressure catheter was placed in the terminal abdominal aorta and the ECG electrodes were sutured, one at the dorsal surface of the xiphoid process and one at the anterior mediastinum, close to the right atrium[42]. Animals were allowed to recover for at least 2 weeks and were around 2–3 months at the time of experimentation. The animals were pair‐housed in standard rat cages with a non‐instrumented companion throughout the study. Cages were prepared with bedding material and enrichment.
Telemetry recordings took place in the home cage. […] The animals were removed from the cage temporarily for dosing and blood sampling. Animals were not subject to restraint except where dosing and blood sampling was performed. Data acquisition used Dataquest Open A.R.T.™ with HEM software version 4.2 (Notocord Inc).
For evaluation of AZD4320, n = 8 rats received single doses of 0 (vehicle: 30% Kleptose, pH9) or 10 mg/kg AZD4320, administered as a 30-min intravenous infusion. A cross-over study design was used, with an interval of 7 days between treatments.
Data for all parameters were collected continuously during the recording period. The continuous data from each animal was binned into chosen time intervals of varying length and averaged to generate a single data point for each reported nominal time. Each reported nominal timepoint was then averaged across each of the animals tested for each dose level.

[1] = Tumour pharmacokinetics (released and total AZD4320) in RS4;11 tumours; type: in vivo, C.B-17 SCID mouse; conditions: for Concentration of Released AZD4320 in Tumour, Mean / Concentration of Released AZD4320 in Tumour, individual samples (Fig 5g/5h) / Concentrations of Total AZD4320 in Tumour, individual samples: 10 mg/kg AZD4320 equivalent; for Concentration of Released AZD4320 in Tumour, individual samples (Fig 5g/5h) / Concentrations of Total AZD4320 in Tumour, individual samples / Concentration of total AZD4320 in tumour: listed as SPL-8977; for Mean concentration of total AZD4320 in tumour / Concentration of total AZD4320 in tumour: tumour tissue; for Mean concentration of total AZD4320 in tumour: mean of 3 samples
Excerpt: For tumour measurements, tumours were harvested, split into smaller pieces and snap frozen in liquid nitrogen. Frozen tumour samples were subsequently weighed and then homogenised for both ‘released’ and ‘total’ AZD4320. For ‘released’ AZD4320, samples were homogenised on ice with an equal volume (w/v) of blank plasma containing 0.2 M citric acid. The samples were then processed according to the aforementioned plasma approach. For ‘total’ AZD4320, samples were homogenised with an equal volume of plasma (w/v) and then processed according to the aforementioned ‘total’ approach.
Sample analyses were performed in batches containing study samples, calibration standards at 10 concentration levels, QC samples at three concentration levels in duplicate and blank samples. The analytical run acceptance criteria for calibration standards and QC samples was that at least 75% of back-calculated concentrations for calibration standards and at least 2/3 of the QC samples (at least 50% at each concentration level) should be within ±20% (±25% at LLOQ) from nominal value.
Female C.B.−17 SCID mice were purchased from Charles River Laboratories. Mice were 5–8 weeks old at the time of tumour implantation. All xenograft studies were conducted at our Association for the Assessment and Accreditation of Laboratory Animal Care accredited facility in Waltham, MA in accordance with ethical regulations described in the guidelines established by the internal Institutional Animal Care and Use Committee. The dendrimer conjugates were formulated in citrate/phosphate buffer pH 5.0, diluted 1:10 with 5% glucose containing 1% w/v Kolliphor HS15, and AZD4320 was formulated in 30% HP-β-CD and dosed as a weekly intravenous (IV) administration at a volume of 5 ml/kg at the indicated doses. Five million RS4;11, five million SUDHL-4 or five million OCI-LY-10 cells were injected subcutaneously in the right flank of mice in a volume of 0.1 ml. Tumour volumes (measured by caliper), animal body weight, and tumor condition were recorded twice weekly for the duration of the study. The tumour volume was calculated (taking length to be the longest diameter across the tumour and width to be the corresponding perpendicular diameter) using the formula: length (mm) x width (mm)^2/0.52. For efficacy studies, mice were randomized based on tumour volumes using stratified sampling and enrolled into control and treatment groups. Tumour growth inhibition from the start of treatment was quantified by measuring the difference in tumour volume between control and treated groups. Survival analysis was evaluated using Mantel-Cox test. Tumours were also taken for bioanalysis.

cleaved caspase-3 (CC3) = assay: Cleaved caspase-3 in RS4;11 tumours by MSD ELISA; type: in vivo, C.B-17 SCID mouse
Experimental: Tumours were excised, snap frozen in liquid nitrogen and stored at –80 °C. Tumours were homogenised in lysis buffer containing protease and phosphatase inhibitors, protein concentration determined by Pierce BCA Protein Assay Kit and diluted in lysis buffer to a protein concentration of 0.4 μg/μL. Cleaved caspase-3 (CC3) was measured using the mesoscale cleaved caspase-3 (Asp175) assay whole cell lysate kit according to manufacturer’s instructions. Induction of CC3 was expressed as fold change of treated tumours over vehicle control.

[2] = RS4;11, single dose AZD0466 34 mg/kg, 3 h, 34 mg/kg
[3] = RS4;11, single dose AZD0466 34 mg/kg, 8 h, 34 mg/kg
[4] = RS4;11, single dose AZD0466 34 mg/kg, 24 h, 34 mg/kg
[5] = RS4;11, single dose AZD0466 34 mg/kg, 48 h, 34 mg/kg
[6] = RS4;11, single dose AZD0466 34 mg/kg, 72 h, 34 mg/kg
[7] = RS4;11, single dose AZD0466 103 mg/kg, 3 h, 103 mg/kg
[8] = RS4;11, single dose AZD0466 103 mg/kg, 8 h, 103 mg/kg
[9] = RS4;11, single dose AZD0466 103 mg/kg, 24 h, 103 mg/kg
[10] = RS4;11, single dose AZD0466 103 mg/kg, 48 h, 103 mg/kg
[11] = RS4;11, single dose AZD0466 103 mg/kg, 72 h, 103 mg/kg

In the case of AZD4320-MIDA-PEG2100 [AZD0466], the “effect on QRS amplitude” value (telemetered rats) is reported as “no effect on QRS amplitude; also recorded: no reduction in QRS amplitude; also recorded: negligible effect on QRS amplitude”, the “Concentration of Released AZD4320 in Tumour, Mean” value (“Concentration … in Tumour, Mean” for short) ([1]; 1 hr) is reported as 8.1 ng/mL and the “Concentration of Released AZD4320 in Tumour, individual samples (Fig 5g/5h)” value (shortened to “Concentration of Released AZD4320 … (Fig 5g/5h)”) ([1]; 1 hr) is reported as 8.2 ng/mL and 11.2 ng/mL and 4.7 ng/mL. The “Concentration … in Tumour, Mean” value ([1]; 3 hr) was 15.1 ng/mL, the “Concentration of Released AZD4320 … (Fig 5g/5h)” value ([1]; 3 hr) was 16 ng/mL and 18.8 ng/mL and 10.4 ng/mL and the “Concentration … in Tumour, Mean” value ([1]; 9 hr) was 109 ng/mL. The “Concentration of Released AZD4320 … (Fig 5g/5h)” value ([1]; 9 hr) was 178.8 ng/mL and 71.4 ng/mL and 78 ng/mL, the “Concentrations of Total AZD4320 in Tumour, individual samples” value ([1]; 9 hr) was 1886 ng/mL and 831 ng/mL and 866 ng/mL and the “Concentration … in Tumour, Mean” value ([1]; 20 hr) was 244 ng/mL. The “Concentration of Released AZD4320 … (Fig 5g/5h)” value ([1]; 20 hr) was 214.9 ng/mL and 250.1 ng/mL and 267.9 ng/mL, the “Concentration … in Tumour, Mean” value ([1]; 48 hr) was 389 ng/mL and the “Concentration of Released AZD4320 … (Fig 5g/5h)” value ([1]; 48 hr) was 493.9 ng/mL and 123.4 ng/mL and 550.2 ng/mL. For the same substance, the “Concentrations of Total AZD4320 in Tumour, individual samples” value ([1]; 48 hr) was 1152 ng/mL and 319 ng/mL and 1257 ng/mL, the “Concentration … in Tumour, Mean” value ([1]; 72 hr) was 462 ng/mL and the “Concentration of Released AZD4320 … (Fig 5g/5h)” value ([1]; 72 hr) was 290.2 ng/mL and 611.5 ng/mL and 485 ng/mL. The “Tumor PK Released AZD4320, individual tumours” value (from here on “Tumor PK Released AZD4320”) [1, 2] was 16 ng/g and 18.8 ng/g and 10.4 ng/g, the “Tumor PK Total AZD4320, individual tumours” value (shortened to “Tumor PK Total AZD4320”) [1, 2] was 621 ng/g and 697 ng/g and 376 ng/g and the “Tumor PK Released AZD4320” value [1, 3] was 179 ng/g and 71.4 ng/g and 78 ng/g. For the same substance, the “Tumor PK Total AZD4320” value [1, 3] was 1886 ng/g and 831 ng/g and 866 ng/g, the “Tumor PK Released AZD4320” value [1, 4] was 215 ng/g and 250 ng/g and 268 ng/g and the “Tumor PK Total AZD4320” value [1, 4] was 926 ng/g and 923 ng/g and 1118 ng/g. The “Tumor PK Released AZD4320” value [1, 5] was 494 ng/g and 123 ng/g and 550 ng/g, the “Tumor PK Total AZD4320” value [1, 5] was 1152 ng/g and 319 ng/g and 1257 ng/g and the “Tumor PK Released AZD4320” value [1, 6] was 290 ng/g and 612 ng/g and 485 ng/g. For the same substance, the “Tumor PK Total AZD4320” value [1, 6] was 536 ng/g and 983 ng/g and 719 ng/g, the “Tumor PK Released AZD4320” value [1, 7] was 227 ng/g and 79 ng/g and 90 ng/g and the “Tumor PK Total AZD4320” value [1, 7] was 5852 ng/g and 2518 ng/g and 2703 ng/g. For the same substance, the “Tumor PK Released AZD4320” value [1, 8] was 1407 ng/g and 1218 ng/g and 972 ng/g, the “Tumor PK Total AZD4320” value [1, 8] was 14358 ng/g and 9822 ng/g and 9418 ng/g and the “Tumor PK Released AZD4320” value [1, 9] was 1730 ng/g and 1595 ng/g and 1484 ng/g. The “Tumor PK Total AZD4320” value [1, 9] was 4335 ng/g and 4133 ng/g and 3920 ng/g, the “Tumor PK Released AZD4320” value [1, 10] was 3581 ng/g and 4025 ng/g and 5214 ng/g and the “Tumor PK Total AZD4320” value [1, 10] was 6225 ng/g and 5604 ng/g and 9523 ng/g. The “Tumor PK Released AZD4320” value [1, 11] was 3295 ng/g and 5783 ng/g and 7049 ng/g, the “Tumor PK Total AZD4320” value [1, 11] was 6132 ng/g and 7039 ng/g and 8246 ng/g and the “Mean concentration of total AZD4320 in tumour” value (“Mean concentration” for short) ([1]; 1 hr) was 536 ng/mL. For the same substance, the “Concentration of total AZD4320 in tumour” value ([1]; 1 hr) was 553 ng/mL and 665 ng/mL and 390 ng/mL, the “Mean concentration” value ([1]; 3 hr) was 565 ng/mL and the “Concentration of total AZD4320 in tumour” value ([1]; 3 hr) was 621 ng/mL and 697 ng/mL and 376 ng/mL. For the same substance, the “Mean concentration” value ([1]; 9 hr) was 1194 ng/mL, the “Mean concentration” value ([1]; 20 hr) was 989 ng/mL and the “Concentration of total AZD4320 in tumour” value ([1]; 20 hr) was 926 ng/mL and 923 ng/mL and 1118 ng/mL. The “Mean concentration” value ([1]; 48 hr) was 909 ng/mL, the “Mean concentration” value ([1]; 72 hr) was 746 ng/mL and the “Concentration of total AZD4320 in tumour” value ([1]; 72 hr) was 536 ng/mL and 983 ng/mL and 719 ng/mL. The “CC3 PD fold over vehicle, individual tumours” value (“CC3 PD fold over vehicle” for short) (cleaved caspase-3 (CC3); RS4;11, single dose AZD0466 34 mg/kg (10mg/kg AZD4320), 3 hr) was 1.1 fold over vehicle (2×) and 0.9 fold over vehicle, the “CC3 PD fold over vehicle” value (cleaved caspase-3 (CC3); RS4;11, single dose AZD0466 34 mg/kg (10mg/kg AZD4320), 8 hr) was 1.1 fold over vehicle and 1.5 fold over vehicle and 1 fold over vehicle and the “CC3 PD fold over vehicle” value (cleaved caspase-3 (CC3); RS4;11, single dose AZD0466 34 mg/kg (10mg/kg AZD4320), 24 hr) was 12.2 fold over vehicle and 4.6 fold over vehicle and 5.3 fold over vehicle. For the same substance, the “CC3 PD fold over vehicle” value (cleaved caspase-3 (CC3); RS4;11, single dose AZD0466 34 mg/kg (10mg/kg AZD4320), 48 hr) was 8.7 fold over vehicle and 9 fold over vehicle and 11 fold over vehicle, the “CC3 PD fold over vehicle” value (cleaved caspase-3 (CC3); RS4;11, single dose AZD0466 34 mg/kg (10mg/kg AZD4320), 72 hr) was 1.8 fold over vehicle and 1.4 fold over vehicle and 2.1 fold over vehicle and the “CC3 PD fold over vehicle” value (cleaved caspase-3 (CC3); RS4;11, single dose AZD0466 103 mg/kg (30mg/kg AZD4320), 3 hr) was 6.8855 fold over vehicle and 4.506 fold over vehicle and 6.287 fold over vehicle. The “CC3 PD fold over vehicle” value (cleaved caspase-3 (CC3); RS4;11, single dose AZD0466 103 mg/kg (30mg/kg AZD4320), 8 hr) was 52.0454 fold over vehicle and 56.5349 fold over vehicle and 45.3617 fold over vehicle, the “CC3 PD fold over vehicle” value (cleaved caspase-3 (CC3); RS4;11, single dose AZD0466 103 mg/kg (30mg/kg AZD4320), 24 hr) was 82.2669 fold over vehicle and 79.7603 fold over vehicle and 78.3412 fold over vehicle and the “CC3 PD fold over vehicle” value (cleaved caspase-3 (CC3); RS4;11, single dose AZD0466 103 mg/kg (30mg/kg AZD4320), 48 hr) was 33.7478 fold over vehicle and 42.9825 fold over vehicle and 23.216 fold over vehicle. For the same substance, the “CC3 PD fold over vehicle” value (cleaved caspase-3 (CC3); RS4;11, single dose AZD0466 103 mg/kg (30mg/kg AZD4320), 72 hr) was 7.7976 fold over vehicle and 4.512 fold over vehicle and 6.025 fold over vehicle.
